System: MS2 coat protein
Assay: apparent KD of MS2 coat protein; designed switch direction (-1 OFF switch, 1 ON switch): -1; higher = weaker reporter binding
In short: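 For each design, the apparent KD is the median over clusters of curves fitted to normalised cluster fluorescence. Clusters held RNA switches with common flanks, transcribed on Illumina chips by stalled E. coli RNA polymerase. These were titrated with SNAP-549-labelled MS2 coat protein, doubling from 0.7 or 1.5 nM to 3 µM, without input, with 200 uM small-molecule ligand, or with an oligonucleotide input.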

[1] = input ligand: microRNA oligo, concentration not stated
[2] = Eterna round: R95, input ligand: FMN 200 uM
[3] = Eterna round: R95, input ligand: microRNA oligo, concentration not stated
[4] = Eterna round: R95, input ligand: none

Sequence	apparent KD of MS2 coat protein (input ligand: FMN 200 uM) [nM]	apparent KD of MS2 coat protein [1] [nM]	apparent KD of MS2 coat protein (input ligand: none) [nM]	apparent KD of MS2 coat protein [2] [nM]	apparent KD of MS2 coat protein [3] [nM]	apparent KD of MS2 coat protein [4] [nM]
ACUCGUGCCCGAGGAUAUUACAGCAACCUGGCUUAAGAAGGCGGGACAUGAGGAUCACCCAUGUUCUGCGCAUCGGUCGUCAGA [Anzatete] (Eterna round: R96, puzzle: Exclusion NG 1)	18.8	9.36	13	–	–	–
ACUGGGAGAGGAUAUACAUGAGGAUCACCCAUGUGAAAUUAUAGUGAGGAAAUGAAAAGUAGAAGGCUCUUAGA [Mod of Mat 14 - Jieux - Exclusion 3] (Eterna round: R97, puzzle: Exclusion 3)	151	–	68.4	–	–	–
ACUGGUGCAGGAUAUACAUGAGGAUCACCCAUGUGAUCAGCAGUCCUCGGACUGCAAUGUAGAAGGGCACCAGU [E3/1-D1] (Eterna round: R97, puzzle: Exclusion 3)	105	–	804	–	–	–
ACUGUUCGAGGAUAUACGAUCGUGCUUCGGCACGUAAGAUCACAUGAGGAUCACCCAUGUAGAAGGCGAACAGU [Mod 5 - Jieux - Exclusion 2] (Eterna round: R97, puzzle: Exclusion 2)	292	–	38.6	–	–	–
ACUUACUGAGGAUAUACAUAGAUUUACAUGAGGAUCACCCAUGUUCCUCUAUGUAUAUAUGUAGAAGGCAGAAGUG [Mat - Exclusion 5 - JL Mod - D36] (Eterna round: R97, puzzle: Exclusion 5)	137	–	33.3	–	–	–
ACUUACUGAGGAUAUGCGUGGAUAAACAUGAGGAUCACCCAUGUUCCUAUAAGUAUGUAUGUAGAAGGCAGAAGAA [JR_Ex5_Sub075] (Eterna round: R97, puzzle: Exclusion 5)	60.5	–	130	–	–	–
ACUUAUAGAGGAUAUACAGUUUAUUACAUGAGGAUCACCCAUGUUCUUCAAUGUCCUGAAGUAGAAGGCUAAGGAA [Ex5 Malc#5 mod4] (Eterna round: R97, puzzle: Exclusion 5)	19.7	–	16.3	–	–	–
ACUUAUUGAGGAUAUACAUUAAAUUACAUGAGGAUCACCCAUGUUCUUCAAUGUAUAUAUGUAGAAGGCAGAAGAA [JL-ex5-4.27 Malcolm mod] (Eterna round: R97, puzzle: Exclusion 5)	14.9	–	16.4	–	–	–
ACUUGCUAUUUGCUCGUCUUAUCCUUGUUUGUUUACUAUACAUGAGGAUCACCCAUGUUAUAUUUAAGGGUGUGAUA [JR_SV3TOV2_Sub075] (puzzle: Sensor v3, turn-off variant 2)	–	–	–	141	322	166
ACUUGUGCCCUAGGAUAUCGCCCAGCCAAUGGAUGAGAAGGAGGCGGGUGAAACAUGAGGAUCACCCAUGUAAACGCACAGGCG [Esa] (Eterna round: R96, puzzle: Exclusion NG 1)	114	25.5	26.9	–	–	–
AGAAACAGAGGAUAUACUUGAGGAUCACCCAAGUGUCACGGAAACACUGUGCUCCUUUGUAGAAGGCUGGAAUA [Dibeon] (Eterna round: R97, puzzle: Exclusion 3)	382	–	63	–	–	–
AGAAACAGAGGAUAUCGCGGACAGCACAUGAGGAUCACCCAUGUGAUGCUCCGCGGGCCGCGAGAAGGCUGAAAUG [Rateatge] (Eterna round: R96, puzzle: Exclusion 5)	–	11.2	–	–	–	–
AGAAACAGAGGAUAUCGCGGACAGCACAUGAGGAUCACCCAUGUGAUGCUCCGCGGGCCGCGAGAAGGCUGAAAUG [Rateatge] (puzzle: Exclusion 5)	–	–	–	29.3	12.2	14.1
AGAAACUCAAGAGGAUAUCACAUGAGGAUCACCCAUGUAUAGCGCGCUAUGCUAGUCCUCGUAUAUGAGAAGGUUUGAAAUAAG [Mat - Exclusion NG 2 - Mod of JL - D80] (Eterna round: R96, puzzle: Exclusion NG 2)	16.4	12.6	17.9	–	–	–
AGAAAUGCCCAUGGCAACAAGCUUUUUGCUUGUCUUACCACAUGAGGAUCACCCAUGUGACAUGGGCUCCUGAUAAU [Ladidier] (puzzle: Sensor v3, turn-off variant 2)	–	–	–	12.4	10.6	12.2
AGAAAUGCCCAUGGCCACAAGCUUUUUGCUUAUCUUACUACAUGAGGAUCACCCAUGUAACAUGGGCUCCUGACAAU [Enrionera] (puzzle: Sensor v3, turn-off variant 2)	–	–	–	14.9	11.2	13.3
AGAAAUGCCCAUGGCCGCAAGCUUUUUACUUGUCUUACCACAUGAGGAUCACCCAUGUGACAUGGAAACCUUAUGAU [Sensor v3, turn-off variant 2 (MOD of Oranla v.2)] (puzzle: Sensor v3, turn-off variant 2)	–	–	–	30.3	97	28.1
AGAAAUGCCCAUGGCCGCAAGCUUUUUACUUGUCUUACCACAUGAGGAUCACCCAUGUGACAUGGAUUCCUUAUGAU [Sensor v3, turn-off variant 2 (MOD of Oranla)] (puzzle: Sensor v3, turn-off variant 2)	–	–	–	169	750	248
AGAAAUGCCCAUGGCCGCAAGCUUUUUACUUGUCUUACCACAUGAGGAUCACCCAUGUGACAUGGGCUCCUGAUAAU [Mabeonen] (puzzle: Sensor v3, turn-off variant 2)	–	–	–	15	27.5	13.4
AGAAAUGCCCAUGGCCGCAAGCUUUUUACUUGUCUUACCACAUGAGGAUCACCCAUGUGACAUGGGCUCCUUAUAAU [Oranla] (puzzle: Sensor v3, turn-off variant 2)	–	–	–	15.8	7.4	13
AGAAGGAAAGUGAGGAUAUGCUCUACCUCGGUAGAGCAGAAGGCACAUGAGGAUCACCCAUGUGACUCCUCAUU [Omei Ex4B B26] (Eterna round: R97, puzzle: Brourd's mod of Exclusion 4)	29.2	–	19.5	–	–	–
AGAAGUAAAUAAGGAUAUCCAUGGGAGAGUGAAGGAGAAGGUAUAAUGUAUUCCAAUGUACCCACUAGGAGUACAAGAUGUUGA [Default title] (Eterna round: R96, puzzle: Exclusion NG 1)	47.9	4.55	23.1	–	–	–
AGAAGUAGAAACCGAUCCUACAUGAGGAUCACCCAUGUAGCAAGACGUGCACGCGAAGCUCGUCAGACUACCAGACG [salish99_TOv1_r3_019] (puzzle: Sensor v3, turn-off variant 1)	–	–	–	152	175	249
AGACAAACUGCAGGAUAUUGGCUGACUGCAGGUCAAGAAGGGCAGGACAUGAGGAUCACCCAUGUUCAGUAAACAGGGAGUCCU [Eternabot solution 14] (Eterna round: R96, puzzle: Exclusion NG 1)	309	43.7	46.6	–	–	–
AGACAACAUGAGGAUCACCCAUGUAAGGAUAUACAAGAUUUGAGAAACGGACUGCCUUGUAGAAGGUACAGGUG [Eternabot (L2) Solution 9] (Eterna round: R97, puzzle: Exclusion 1)	51	–	36.7	–	–	–
AGACCACAUGAGGAUCACCCAUGUCAGGAUAUCGACUGAACAGCUUCGGCUGUUCAGUCGAGAAGGGACAAUUA [Brourdxlusion 8 - Jieux - Exclusion 1] (Eterna round: R97, puzzle: Exclusion 1)	60	–	52.7	–	–	–
AGAGAACAUGAGGAUCACCCAUGUAAGGAUAUGCGAAGAGUUCGGAGAGGUUGAGGAGGCAGAAGGUACAGGAG [JR_Exclu1_Sub042] (puzzle: Exclusion 1)	–	–	–	30.5	31.4	33.1
AGAGACCGAGGAUAUACAUGAGGAUCACCCAUGUUGUUAGGUGAUGGAUUAAUGAUUGGUAGAAGGCGGAGAGA [Seems to work] (Eterna round: R97, puzzle: Exclusion 3)	340	–	227	–	–	–
AGAGAGUCAGGAUAUCGAAGGUAGUGGAGAGGAGUGUGGUACGAGAAGGGACAUGAGGAUCACCCAUGUAGGAG [JR_Exclusion4)Sub008] (puzzle: Exclusion 4)	–	–	–	31	35.4	33.2

Source: the supplement of paper PMC9170038
